Experimental findings from paper PMC6277001 (Molecular cancer research : MCR, 2018) are described below.

In this assay the target is T1, GST-β-catenin^4A (UniProt P35222 1-781, S33A | S37A | T41A | S45A).
T1 sequence: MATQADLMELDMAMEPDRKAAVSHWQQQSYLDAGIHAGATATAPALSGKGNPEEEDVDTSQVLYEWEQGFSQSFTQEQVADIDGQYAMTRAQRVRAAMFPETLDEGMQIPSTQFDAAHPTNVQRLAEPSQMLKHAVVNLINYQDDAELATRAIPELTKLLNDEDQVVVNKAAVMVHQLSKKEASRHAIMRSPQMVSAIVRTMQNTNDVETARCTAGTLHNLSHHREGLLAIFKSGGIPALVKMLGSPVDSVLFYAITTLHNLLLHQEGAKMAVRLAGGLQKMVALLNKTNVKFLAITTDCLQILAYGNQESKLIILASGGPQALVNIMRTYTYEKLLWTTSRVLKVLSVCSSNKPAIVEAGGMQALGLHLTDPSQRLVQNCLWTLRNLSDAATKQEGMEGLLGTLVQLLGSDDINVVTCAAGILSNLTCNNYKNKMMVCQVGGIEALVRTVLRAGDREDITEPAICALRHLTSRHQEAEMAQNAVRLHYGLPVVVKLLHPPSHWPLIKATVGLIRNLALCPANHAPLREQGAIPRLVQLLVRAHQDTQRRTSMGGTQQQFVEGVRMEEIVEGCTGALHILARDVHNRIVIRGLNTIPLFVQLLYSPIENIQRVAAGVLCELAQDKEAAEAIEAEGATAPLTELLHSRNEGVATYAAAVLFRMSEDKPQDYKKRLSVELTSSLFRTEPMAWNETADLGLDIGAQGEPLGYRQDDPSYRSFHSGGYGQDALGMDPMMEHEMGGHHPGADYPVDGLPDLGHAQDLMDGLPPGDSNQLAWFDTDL
In words: pull-down.

B1: 6xHis-FLYWCH1 (natural protein)
chain: MPLPEPSEQEGESVKAGQEPSPKPGTDVIPAAPRKPREFSKLVLLTASDQDEDGVGSKPQEVHCVLSLEMAGPATLASTLQILPVEEQGGVVQPALEMPEQKCSKLDAAAPQSLEFLRTPFGGRLLVLESFLYKQEKAVGDKVYWKCRQHAELGCRGRAITRGLRATVMRGHCHAPDEQGLEARRQREKLPSLALPEGLGEPQGPEGPGGRVEEPLEGVGPWQCPEEPEPTPGLVLSKPALEEEEAPRALSLLSLPPKKRSILGLGQARPLEFLRTCYGGSFLVHESFLYKREKAVGDKVYWTCRDHALHGCRSRAITQGQRVTVMRGHCHQPDMEGLEARRQQEKAVETLQAGQDGPGSQVDTLLRGVDSLLYRRGPGPLTLTRPRPRKRAKVEDQELPTQPEAPDEHQDMDADPGGPEFLKTPLGGSFLVYESFLYRREKAAGEKVYWTCRDQARMGCRSRAITQGRRVTVMRGHCHPPDLGGLEALRQREKRPNTAQRGSPGGPEFLKTPLGGSFLVYESFLYRREKAAGEKVYWTCRDQARMGCRSRAITQGRRVMVMRRHCHPPDLGGLEALRQREHFPNLAQWDSPDPLRPLEFLRTSLGGRFLVHESFLYRKEKAAGEKVYWMCRDQARLGCRSRAITQGHRIMVMRSHCHQPDLAGLEALRQRERLPTTAQQEDPEKIQVQLCFKTCSPESQQIYGDIKDVRLDGESQ
With B1, the binding result is recorded as “binds”.
